Laboratory results as given in PMC9482650, “Quantitative fragmentomics allow affinity mapping of interactomes” (Nature Communications, 2022).

B1: HPV59-E6, Q81964 (peptide)
chain: QRQARSETLV
B2: ARHGEF7, Q14155;Q14155-1 (peptide)
chain: NDPAWDETNL

What follows are binders tested against T1, PDZD2_2, O15018 (assay: holdup assay). Details: plain residues with an end cap or a label only (N-terminal biotin on a linker: ttds).
T1 sequence (O15018 329-429, limits assumed, looked up): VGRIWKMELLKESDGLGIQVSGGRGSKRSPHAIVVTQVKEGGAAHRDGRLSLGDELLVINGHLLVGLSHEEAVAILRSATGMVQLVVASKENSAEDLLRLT
Parameters: key: below the threshold = too weak to quantify, mostly under pKd 3.1 to 4

Row | Binder | pKd
1 | B1 | 4.37

The binders below were run against T2, DVL3, Q92997 (assay: holdup assay). Details: plain residues with an end cap or a label only (N-terminal biotin on a linker: ttds).
T2 sequence (Q92997 244-331, limits assumed, looked up): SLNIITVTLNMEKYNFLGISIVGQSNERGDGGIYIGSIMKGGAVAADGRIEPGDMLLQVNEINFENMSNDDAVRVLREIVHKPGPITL
Parameters: key: below the threshold = too weak to quantify, mostly under pKd 3.1 to 4

Row | Binder | pKd
2 | B2 | below the threshold
3 | B1 | below the threshold

What follows are binders tested against T3, APBA3_1, O96018 (assay: holdup assay). Details: plain residues with an end cap or a label only (N-terminal biotin on a linker: ttds).
T3 sequence (O96018 389-490, limits assumed, looked up): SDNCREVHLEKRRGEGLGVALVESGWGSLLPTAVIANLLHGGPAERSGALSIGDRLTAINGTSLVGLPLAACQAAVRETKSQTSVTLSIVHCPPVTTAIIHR
Parameters: key: below the threshold = too weak to quantify, mostly under pKd 3.1 to 4

Row | Binder | pKd
4 | B2 | below the threshold
5 | B1 | below the threshold

What follows are binders tested against T4, MPP7, Q5T2T1 (assay: holdup assay). Details: plain residues with an end cap or a label only (N-terminal biotin on a linker: ttds).
T4 sequence (Q5T2T1 134-230, limits assumed, looked up): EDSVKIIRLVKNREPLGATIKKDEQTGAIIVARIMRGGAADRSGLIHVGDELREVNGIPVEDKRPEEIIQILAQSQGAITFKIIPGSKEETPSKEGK
Parameters: key: below the threshold = too weak to quantify, mostly under pKd 3.1 to 4

Row | Binder | pKd
6 | B2 | below the threshold
7 | B1 | below the threshold

Each binder was assayed against T5, MPP6, Q9NZW5 (assay: holdup assay). Details: plain residues with an end cap or a label only (N-terminal biotin on a linker: ttds).
T5 sequence (Q9NZW5 125-219, limits assumed, looked up): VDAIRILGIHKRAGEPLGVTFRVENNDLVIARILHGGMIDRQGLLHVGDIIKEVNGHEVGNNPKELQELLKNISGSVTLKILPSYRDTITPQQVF
Parameters: key: below the threshold = too weak to quantify, mostly under pKd 3.1 to 4

Row | Binder | pKd
8 | B2 | below the threshold
9 | B1 | below the threshold

What follows are binders tested against T6, APBA2_1, Q99767 (assay: holdup assay). Details: plain residues with an end cap or a label only (N-terminal biotin on a linker: ttds).
T6 sequence (Q99767 563-664, limits assumed, looked up): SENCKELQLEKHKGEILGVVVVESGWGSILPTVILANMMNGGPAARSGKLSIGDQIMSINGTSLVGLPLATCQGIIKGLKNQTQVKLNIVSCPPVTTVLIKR
Parameters: key: below the threshold = too weak to quantify, mostly under pKd 3.1 to 4

Row | Binder | pKd
10 | B2 | below the threshold
11 | B1 | below the threshold

What follows are binders tested against FRMPD2_1, Q68DX3 (assay: holdup assay). Details: plain residues with an end cap or a label only (N-terminal biotin on a linker: ttds).
Parameters: key: below the threshold = too weak to quantify, mostly under pKd 3.1 to 4

Sequence of FRMPD2_1, Q68DX3 (Q68DX3 770-861): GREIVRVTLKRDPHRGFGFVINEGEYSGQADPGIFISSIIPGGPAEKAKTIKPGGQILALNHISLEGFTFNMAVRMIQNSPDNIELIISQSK

Row | Binder | pKd
12 | B2 | below the threshold
13 | B1 | below the threshold

Each binder was assayed against SNX27, Q96L92 (assay: holdup assay). Details: plain residues with an end cap or a label only (N-terminal biotin on a linker: ttds).
Parameters: key: below the threshold = too weak to quantify, mostly under pKd 3.1 to 4

Row | Binder | pKd
14 | B2 | 5.66
15 | B1 | 4.64

These binders were tested against T7, DLG3_1, Q92796 (assay: holdup assay). Details: plain residues with an end cap or a label only (N-terminal biotin on a linker: ttds).
T7 sequence (Q92796 125-227, limits assumed, looked up): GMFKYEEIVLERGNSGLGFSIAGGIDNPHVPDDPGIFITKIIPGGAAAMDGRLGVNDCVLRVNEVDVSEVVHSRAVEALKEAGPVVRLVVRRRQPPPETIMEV
Parameters: key: below the threshold = too weak to quantify, mostly under pKd 3.1 to 4

Row | Binder | pKd
16 | B2 | below the threshold
17 | B1 | 4.58

The binders below were run against DLG2_3, Q15700 (assay: holdup assay). Details: plain residues with an end cap or a label only (N-terminal biotin on a linker: ttds).
Parameters: key: below the threshold = too weak to quantify, mostly under pKd 3.1 to 4

Row | Binder | pKd
18 | B2 | below the threshold
19 | B1 | 4.84

These binders were tested against T8, LRRC7, Q96NW7 (assay: holdup assay). Details: plain residues with an end cap or a label only (N-terminal biotin on a linker: ttds).
T8 sequence (Q96NW7 1440-1537, limits assumed, looked up): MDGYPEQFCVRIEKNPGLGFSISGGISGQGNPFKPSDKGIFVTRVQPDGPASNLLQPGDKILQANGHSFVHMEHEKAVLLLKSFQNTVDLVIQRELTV
Parameters: key: below the threshold = too weak to quantify, mostly under pKd 3.1 to 4

Row | Binder | pKd
20 | B1 | below the threshold

Each binder was assayed against HTRA2, O43464 (assay: holdup assay). Details: plain residues with an end cap or a label only (N-terminal biotin on a linker: ttds).
Parameters: key: below the threshold = too weak to quantify, mostly under pKd 3.1 to 4

Sequence of HTRA2, O43464 (O43464 355-458): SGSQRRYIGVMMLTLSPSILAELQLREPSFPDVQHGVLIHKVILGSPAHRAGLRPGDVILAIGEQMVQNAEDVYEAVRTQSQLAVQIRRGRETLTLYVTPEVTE

Row | Binder | pKd
21 | B2 | below the threshold
22 | B1 | below the threshold

These binders were tested against T9, PTPN13_1, Q12923 (assay: holdup assay). Details: plain residues with an end cap or a label only (N-terminal biotin on a linker: ttds).
T9 sequence (Q12923 1088-1188, limits assumed, looked up): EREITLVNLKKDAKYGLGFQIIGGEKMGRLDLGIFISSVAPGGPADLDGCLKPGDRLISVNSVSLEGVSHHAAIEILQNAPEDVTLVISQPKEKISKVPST
Parameters: key: below the threshold = too weak to quantify, mostly under pKd 3.1 to 4

Row | Binder | pKd
23 | B2 | below the threshold
24 | B1 | below the threshold

These binders were tested against T10, ARHGEF11, O15085 (assay: holdup assay). Details: plain residues with an end cap or a label only (N-terminal biotin on a linker: ttds).
T10 sequence (O15085 42-136, limits assumed, looked up): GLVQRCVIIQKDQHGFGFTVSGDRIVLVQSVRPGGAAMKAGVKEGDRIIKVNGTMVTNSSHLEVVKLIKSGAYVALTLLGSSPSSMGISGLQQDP
Parameters: key: below the threshold = too weak to quantify, mostly under pKd 3.1 to 4

Row | Binder | pKd
25 | B1 | below the threshold

The binders below were run against GRIP2_6, Q9C0E4 (assay: holdup assay). Details: plain residues with an end cap or a label only (N-terminal biotin on a linker: ttds).
Parameters: key: below the threshold = too weak to quantify, mostly under pKd 3.1 to 4

Sequence of GRIP2_6, Q9C0E4 (Q9C0E4 648-740): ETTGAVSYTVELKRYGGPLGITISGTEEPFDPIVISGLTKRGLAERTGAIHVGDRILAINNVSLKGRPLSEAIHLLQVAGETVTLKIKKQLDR

Row | Binder | pKd
26 | B2 | below the threshold
27 | B1 | below the threshold

These binders were tested against FRMPD2_3, Q68DX3 (assay: holdup assay). Details: plain residues with an end cap or a label only (N-terminal biotin on a linker: ttds).
Parameters: key: below the threshold = too weak to quantify, mostly under pKd 3.1 to 4

Sequence of FRMPD2_3, Q68DX3 (Q68DX3 1073-1166): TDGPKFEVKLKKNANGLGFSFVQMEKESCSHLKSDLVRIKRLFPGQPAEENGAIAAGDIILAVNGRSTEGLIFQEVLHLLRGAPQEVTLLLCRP

Row | Binder | pKd
28 | B2 | below the threshold
29 | B1 | below the threshold

What follows are binders tested against T11, SNTB1, Q13884 (assay: holdup assay). Details: plain residues with an end cap or a label only (N-terminal biotin on a linker: ttds).
T11 sequence (Q13884 107-205, limits assumed, looked up): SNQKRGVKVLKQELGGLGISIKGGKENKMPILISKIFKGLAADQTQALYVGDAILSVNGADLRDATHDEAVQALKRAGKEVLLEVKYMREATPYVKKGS
Parameters: key: below the threshold = too weak to quantify, mostly under pKd 3.1 to 4

Row | Binder | pKd
30 | B2 | 4.26
31 | B1 | 3.86

Each binder was assayed against T12, SNTA1, Q13424 (assay: holdup assay). Details: plain residues with an end cap or a label only (N-terminal biotin on a linker: ttds).
T12 sequence (Q13424 82-180, limits assumed, looked up): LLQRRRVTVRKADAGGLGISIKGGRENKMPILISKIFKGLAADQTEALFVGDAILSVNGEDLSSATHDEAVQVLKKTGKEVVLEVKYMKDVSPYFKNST
Parameters: key: below the threshold = too weak to quantify, mostly under pKd 3.1 to 4

Row | Binder | pKd
32 | B1 | 3.99

Each binder was assayed against AHNAK1, Q09666 (assay: holdup assay). Details: plain residues with an end cap or a label only (N-terminal biotin on a linker: ttds).
Parameters: key: below the threshold = too weak to quantify, mostly under pKd 3.1 to 4

Sequence of AHNAK1, Q09666 (Q09666 4-100): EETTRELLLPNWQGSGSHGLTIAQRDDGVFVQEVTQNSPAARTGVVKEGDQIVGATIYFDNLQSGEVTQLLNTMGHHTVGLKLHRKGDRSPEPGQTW

Row | Binder | pKd
33 | B2 | below the threshold
34 | B1 | below the threshold

These binders were tested against T13, RAPGEF6, Q8TEU7 (assay: holdup assay). Details: plain residues with an end cap or a label only (N-terminal biotin on a linker: ttds).
T13 sequence (Q8TEU7 525-625, limits assumed, looked up): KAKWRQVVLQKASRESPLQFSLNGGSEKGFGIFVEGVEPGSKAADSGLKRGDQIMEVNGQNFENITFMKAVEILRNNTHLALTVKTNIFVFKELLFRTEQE
Parameters: key: below the threshold = too weak to quantify, mostly under pKd 3.1 to 4

Row | Binder | pKd
35 | B2 | below the threshold
36 | B1 | below the threshold

Each binder was assayed against IL16_4, Q14005 (assay: holdup assay). Details: plain residues with an end cap or a label only (N-terminal biotin on a linker: ttds).
Parameters: key: below the threshold = too weak to quantify, mostly under pKd 3.1 to 4

Sequence of IL16_4, Q14005 (Q14005 1229-1329): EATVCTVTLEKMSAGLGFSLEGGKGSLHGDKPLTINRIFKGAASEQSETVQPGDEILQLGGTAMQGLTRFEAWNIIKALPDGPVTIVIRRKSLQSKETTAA

Row | Binder | pKd
37 | B2 | below the threshold
38 | B1 | below the threshold

These binders were tested against PARD3_3, Q8TEW0 (assay: holdup assay). Details: plain residues with an end cap or a label only (N-terminal biotin on a linker: ttds).
Parameters: key: below the threshold = too weak to quantify, mostly under pKd 3.1 to 4

Sequence of PARD3_3, Q8TEW0 (Q8TEW0 582-685): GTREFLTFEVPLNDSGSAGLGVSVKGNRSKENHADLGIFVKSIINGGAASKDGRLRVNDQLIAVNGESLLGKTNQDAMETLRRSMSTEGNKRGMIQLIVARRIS

Row | Binder | pKd
39 | B2 | 4.16
40 | B1 | below the threshold

Each binder was assayed against DLG5_1, Q8TDM6 (assay: holdup assay). Details: plain residues with an end cap or a label only (N-terminal biotin on a linker: ttds).
Parameters: key: below the threshold = too weak to quantify, mostly under pKd 3.1 to 4

Sequence of DLG5_1, Q8TDM6 (Q8TDM6 617-713): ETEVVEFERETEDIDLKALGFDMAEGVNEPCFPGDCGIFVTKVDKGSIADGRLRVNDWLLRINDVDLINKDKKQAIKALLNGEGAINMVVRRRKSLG

Row | Binder | pKd
41 | B2 | below the threshold
42 | B1 | below the threshold

These binders were tested against LAP2, Q96RT1 (assay: holdup assay). Details: plain residues with an end cap or a label only (N-terminal biotin on a linker: ttds).
Parameters: key: below the threshold = too weak to quantify, mostly under pKd 3.1 to 4

Sequence of LAP2, Q96RT1 (Q96RT1 other isoform, or with tags, fused parts or gaps): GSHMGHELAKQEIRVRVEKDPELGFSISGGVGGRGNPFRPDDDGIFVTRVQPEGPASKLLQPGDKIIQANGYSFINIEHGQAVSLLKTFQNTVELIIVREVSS

Row | Binder | pKd
43 | B2 | 4.46
44 | B1 | below the threshold

What follows are binders tested against MAGI2_6, Q86UL8 (assay: holdup assay). Details: plain residues with an end cap or a label only (N-terminal biotin on a linker: ttds).
Parameters: key: below the threshold = too weak to quantify, mostly under pKd 3.1 to 4

Sequence of MAGI2_6, Q86UL8 (Q86UL8 1141-1229): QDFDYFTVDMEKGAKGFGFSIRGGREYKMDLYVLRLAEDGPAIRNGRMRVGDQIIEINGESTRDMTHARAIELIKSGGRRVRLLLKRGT

Row | Binder | pKd
45 | B2 | 3.92
46 | B1 | 3.74
